Reference: the supplement of paper PMC9112550, “Optimization of the antimicrobial peptide Bac7 by deep mutational scanning” (BMC Biology, 2022)
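Note: peptides expressed intracellularly from a pBAD plasmid library in pooled LB shake-flask culture, induced with 0.3% L-arabinose, DNA abundance read by NGS, three biological replicates, DESeq2 with apeglm shrinkage.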

What follows are sequences tested on Escherichia coli TOP10 (assay: shrunken log2 fold change of peptide-encoding DNA abundance (4.5 h post-induction vs induction); higher = less antimicrobial activity (less host growth inhibition)). Details: time post-induction: 4.5 h; library: site-saturation at positions 5, 18, 19, 20.
RRIRYRPPRLPRPRPRPDPYPRP was tested, and the “shrunken log2 fold change” value was -0.222.
For RRIRGRPPRLPRPRPRPDDWPRP, the “shrunken log2 fold change” value was 1.5.
With RRIRPRPPRLPRPRPRPNDRPRP the “shrunken log2 fold change” value was -0.0965.
With RRIRGRPPRLPRPRPRPLHDPRP the “shrunken log2 fold change” value was 0.748.
In the case of RRIRWRPPRLPRPRPRPECRPRP, the “shrunken log2 fold change” value is reported as 0.88.
RRIRQRPPRLPRPRPRPEPHPRP was tested, and the “shrunken log2 fold change” value was 0.0864.
RRIRFRPPRLPRPRPRPTMEPRP was tested, and the “shrunken log2 fold change” value was -0.266.
In the case of RRIRNRPPRLPRPRPRPLKYPRP, the “shrunken log2 fold change” value is reported as -0.0547.
With RRIRMRPPRLPRPRPRPMLPPRP the “shrunken log2 fold change” value was 0.301.
With RRIRPRPPRLPRPRPRPTTGPRP the “shrunken log2 fold change” value was 0.12.
For RRIRCRPPRLPRPRPRPFKAPRP, the “shrunken log2 fold change” value was -0.713.
In the case of RRIRKRPPRLPRPRPRPEPKPRP, the “shrunken log2 fold change” value is reported as 0.191.
For RRIRGRPPRLPRPRPRPKICPRP, the “shrunken log2 fold change” value was -0.0723.
In the case of RRIRNRPPRLPRPRPRPMVWPRP, the “shrunken log2 fold change” value is reported as -0.03.
For RRIRIRPPRLPRPRPRPMYCPRP, the “shrunken log2 fold change” value was -0.183.
For RRIRARPPRLPRPRPRPQTWPRP, the “shrunken log2 fold change” value was 0.279.
For RRIRIRPPRLPRPRPRPWCYPRP, the “shrunken log2 fold change” value was -0.406.
RRIRFRPPRLPRPRPRPTLRPRP was tested, and the “shrunken log2 fold change” value was 0.0831.
For RRIRPRPPRLPRPRPRPYSRPRP, the “shrunken log2 fold change” value was -0.368.
For RRIRNRPPRLPRPRPRPARTPRP, the “shrunken log2 fold change” value was 0.139.
For RRIRWRPPRLPRPRPRPDIGPRP, the “shrunken log2 fold change” value was -0.0157.
For RRIRNRPPRLPRPRPRPCWKPRP, the “shrunken log2 fold change” value was -0.0657.
RRIRVRPPRLPRPRPRPHDNPRP was tested, and the “shrunken log2 fold change” value was -0.445.
For RRIRERPPRLPRPRPRPGKGPRP, the “shrunken log2 fold change” value was 0.208.
For RRIRARPPRLPRPRPRPGPPPRP, the “shrunken log2 fold change” value was 0.736.
With RRIRTRPPRLPRPRPRPCYVPRP the “shrunken log2 fold change” value was -0.89.
With RRIRDRPPRLPRPRPRPYVNPRP the “shrunken log2 fold change” value was -1.59.
In the case of RRIRSRPPRLPRPRPRPFSFPRP, the “shrunken log2 fold change” value is reported as -0.633.
For RRIRARPPRLPRPRPRPIINPRP, the “shrunken log2 fold change” value was -0.174.
RRIRPRPPRLPRPRPRPHFPPRP was tested, and the “shrunken log2 fold change” value was -0.204.
RRIRRRPPRLPRPRPRPQQQPRP was tested, and the “shrunken log2 fold change” value was -0.0864.
For RRIRERPPRLPRPRPRPFMRPRP, the “shrunken log2 fold change” value was 0.154.
RRIRSRPPRLPRPRPRPIRPPRP was tested, and the “shrunken log2 fold change” value was -0.157.
In the case of RRIRPRPPRLPRPRPRPGFIPRP, the “shrunken log2 fold change” value is reported as -0.221.
For RRIRSRPPRLPRPRPRPFRGPRP, the “shrunken log2 fold change” value was -0.242.
For RRIRCRPPRLPRPRPRPMSAPRP, the “shrunken log2 fold change” value was -0.0757.
RRIRVRPPRLPRPRPRPWMCPRP was tested, and the “shrunken log2 fold change” value was -0.522.
RRIRGRPPRLPRPRPRPGFYPRP was tested, and the “shrunken log2 fold change” value was 0.512.
In the case of RRIRCRPPRLPRPRPRPTSSPRP, the “shrunken log2 fold change” value is reported as -0.11.
For RRIRPRPPRLPRPRPRPETGPRP, the “shrunken log2 fold change” value was -0.0114.
In the case of RRIRDRPPRLPRPRPRPTVEPRP, the “shrunken log2 fold change” value is reported as 0.766.
For RRIRFRPPRLPRPRPRPFYSPRP, the “shrunken log2 fold change” value was -0.0734.
For RRIRDRPPRLPRPRPRPQQSPRP, the “shrunken log2 fold change” value was 0.0846.
In the case of RRIRIRPPRLPRPRPRPHLIPRP, the “shrunken log2 fold change” value is reported as -0.245.
With RRIRQRPPRLPRPRPRPELYPRP the “shrunken log2 fold change” value was -0.113.
In the case of RRIRGRPPRLPRPRPRPRDFPRP, the “shrunken log2 fold change” value is reported as 0.619.
With RRIRGRPPRLPRPRPRPTLYPRP the “shrunken log2 fold change” value was 0.598.
For RRIRCRPPRLPRPRPRPEIWPRP, the “shrunken log2 fold change” value was 0.471.
With RRIRARPPRLPRPRPRPISRPRP the “shrunken log2 fold change” value was 0.354.
RRIRHRPPRLPRPRPRPQRYPRP was tested, and the “shrunken log2 fold change” value was -0.0589.
For RRIRIRPPRLPRPRPRPKEDPRP, the “shrunken log2 fold change” value was -0.327.
RRIRPRPPRLPRPRPRPHARPRP was tested, and the “shrunken log2 fold change” value was 0.111.
With RRIRYRPPRLPRPRPRPARPPRP the “shrunken log2 fold change” value was 0.943.
RRIRGRPPRLPRPRPRPHAMPRP was tested, and the “shrunken log2 fold change” value was 0.171.
For RRIRPRPPRLPRPRPRPTQKPRP, the “shrunken log2 fold change” value was 0.0334.
With RRIRYRPPRLPRPRPRPSTDPRP the “shrunken log2 fold change” value was -0.011.
With RRIRSRPPRLPRPRPRPLKIPRP the “shrunken log2 fold change” value was -0.309.
For RRIRCRPPRLPRPRPRPKCNPRP, the “shrunken log2 fold change” value was -0.201.
With RRIRSRPPRLPRPRPRPWVTPRP the “shrunken log2 fold change” value was -0.89.
In the case of RRIRFRPPRLPRPRPRPTIGPRP, the “shrunken log2 fold change” value is reported as -0.0631.
For RRIRARPPRLPRPRPRPNSIPRP, the “shrunken log2 fold change” value was -0.125.
With RRIRNRPPRLPRPRPRPTQVPRP the “shrunken log2 fold change” value was 0.152.
In the case of RRIRQRPPRLPRPRPRPAATPRP, the “shrunken log2 fold change” value is reported as 0.732.
With RRIRTRPPRLPRPRPRPCDMPRP the “shrunken log2 fold change” value was -0.729.
In the case of RRIRGRPPRLPRPRPRPLHGPRP, the “shrunken log2 fold change” value is reported as 0.212.
In the case of RRIRPRPPRLPRPRPRPEPVPRP, the “shrunken log2 fold change” value is reported as 0.12.
With RRIRGRPPRLPRPRPRPHVTPRP the “shrunken log2 fold change” value was 0.00976.
In the case of RRIRMRPPRLPRPRPRPLIIPRP, the “shrunken log2 fold change” value is reported as -0.249.
RRIRERPPRLPRPRPRPWETPRP was tested, and the “shrunken log2 fold change” value was 0.11.
In the case of RRIRSRPPRLPRPRPRPFMEPRP, the “shrunken log2 fold change” value is reported as -0.54.
For RRIRCRPPRLPRPRPRPRSIPRP, the “shrunken log2 fold change” value was -0.0603.
RRIRYRPPRLPRPRPRPEVLPRP was tested, and the “shrunken log2 fold change” value was -0.00228.
RRIRMRPPRLPRPRPRPYFNPRP was tested, and the “shrunken log2 fold change” value was -0.822.
In the case of RRIRERPPRLPRPRPRPVPHPRP, the “shrunken log2 fold change” value is reported as -0.0329.
With RRIRKRPPRLPRPRPRPAAQPRP the “shrunken log2 fold change” value was 0.814.
